Molecular target: T1, recombinant human CCN6 (rhCCN6) protein, full length (human, UniProt O95389 24-354)
T1 sequence (looked up): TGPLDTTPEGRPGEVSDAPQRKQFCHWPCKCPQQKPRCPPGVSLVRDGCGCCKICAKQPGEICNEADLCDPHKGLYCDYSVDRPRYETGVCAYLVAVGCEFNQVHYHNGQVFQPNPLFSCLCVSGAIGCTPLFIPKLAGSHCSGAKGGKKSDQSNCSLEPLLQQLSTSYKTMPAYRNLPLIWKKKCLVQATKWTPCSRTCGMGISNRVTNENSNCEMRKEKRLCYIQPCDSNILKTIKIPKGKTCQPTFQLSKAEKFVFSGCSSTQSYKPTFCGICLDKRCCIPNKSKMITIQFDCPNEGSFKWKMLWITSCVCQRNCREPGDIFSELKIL
Experiment: SPR

Kd: 200 nM
B1: disulfide linked homodimer of biotin labeled rhBMP4 (Bio-BMP4) (ligand, human, UniProt P12644 293-408, looked up)
chain: SPKHHSQRARKKNKNCRRHSLYVDFSDVGWNDWIVAPPGYQAFYCHGDCPFPLADHLNSTNHAIVQTLVNSVNSSIPKACCVPTELSAISMLYLDEYDKVVLKNYQEMVVEGCGCR
modifications: biotin label (site not stated)
